Source: patent EP1471146A2 (Novartis AG, dated 2004)

Target: the molecule itself
Assay: Western blot of soluble nuclear extracts, seminative electrophoresis (self-association, homotrimer)

B1: recombinant adenovirus type 5 (Ad5) fiber protein expressed from pCLF in cell lines 211A, 211B and 211R (other)
chain: MKRARPSEDTFNPVYPYDTETGPPTVPFLTPPFVSPNGFQESPPGVLSLRLSEPLVTSNGMLALKMGNGLSLDEAGNLTSQNVTTVSPPLKKTKSNINLEISAPLTVTSEALTVAAAAPLMVAGNTLTMQSQAPLTVHDSKLSIATQGPLTVSEGKLALQTSGPLTTTDSSTLTITASPPLTTATGSLGIDLKEPIYTQNGKLGLKYGAPLHVTDDLNTLTVATGPGVTINNTSLQTKVTGALGFDSQGNMQLNVAGGLRIDSQNRRLILDVSYPFDAQNQLNLRLGQGPLFINSAHNLDINYNKGLYLFTASNNSKKLEVNLSTAKGLMFDATAIAINAGDGLEFGSPNAPNTNPLKTKIGHGLEFDSNKAMVPKLGTGLSFDSTGAITVGNKNNDKLTLWTTPAPSPNCRLNAEKDAKLTLVLTKCGSQILATVSVLAVKGSLAPISGTVQSAHLIIRFDENGVLLNNSFLDPEYWNFRNGDLTEGTAYTNAVGFMPNLSAYPKSHGKTAKSNIVSQVYLNGDKTKPVTLTITLNGTQETGDTTPSAYSMSFSWDWSGHNYINEIFATSSYTFSYIAQE
notes: Monomer 62 kD, homotrimer 186 kD; Expressed in 293-derived lines 211A, 211B and 211R; also called recombinant fiber; type 5 fiber protein
  binding result: binds
